± gives the standard deviation of the averaged measurements.
Assay: total protein half-life in vivo (active degradation + dilution); higher = more stable protein
[1] = E. coli NCM3722 delta-clpP delta-lon delta-hslV, growth: N-lim chemostat, doubling time 6 h
[2] = E. coli NCM3722 delta-clpP, growth: N-lim chemostat, doubling time 6 h
[3] = E. coli NCM3722 delta-hslV, growth: N-lim chemostat, doubling time 6 h
[4] = E. coli NCM3722 delta-lon, growth: N-lim chemostat, doubling time 6 h
[5] = E. coli NCM3722 delta-smpB, growth: N-lim chemostat, doubling time 6 h
[6] = wild type E. coli NCM3722, growth: C-lim chemostat, doubling time 3 h
[7] = wild type E. coli NCM3722, growth: C-lim chemostat, doubling time 6 h
[8] = wild type E. coli NCM3722, growth: C-lim chemostat, doubling time 12 h
[9] = wild type E. coli NCM3722, growth: N-lim chemostat, doubling time 6 h
[10] = wild type E. coli NCM3722, growth: N-lim chemostat, doubling time 12 h
[11] = wild type E. coli NCM3722, growth: P-lim chemostat, doubling time 6 h
[12] = wild type E. coli NCM3722, growth: P-lim chemostat, doubling time 12 h

MNDAIPRPQAKTRKALTPLLEIRNLTKSYDGQHAVDDVSLTIYKGEIFALLGASGCGKSTLLRMLAGFEQPSAGQIMLDGVDLSQVPPYLRPINMMFQSYALFPHMTVEQNIAFGLKQDKLPKAEIASRVNEMLGLVHMQEFAKRKPHQLSGGQRQRVALARSLAKRPKLLLLDEPMGALDKKLRDRMQLEVVDILERVGVTCVMVTHDQEEAMTMAGRIAIMNRGKFVQIGEPEEIYEHPTTRYSAEFIGSVNVFEGVLKERQEDGLVLDSPGLVHPLKVDADASVVDNVPVHVALRPEKIMLCEEPPANGCNFAVGEVIHIAYLGDLSVYHVRLKSGQMISAQLQNAHRHRKGLPTWGDEVRLCWEVDSCVVLTV
total protein half-life in vivo [1]: 6.49 ± 0.28 h | total protein half-life in vivo [2]: 6.64 ± 0.65 h | total protein half-life in vivo [3]: 5.74 ± 0.33 h | total protein half-life in vivo [4]: 6.22 ± 0.67 h | total protein half-life in vivo [5]: 5.84 ± 0.35 h | total protein half-life in vivo [6]: 2.93 ± 0.054 h | total protein half-life in vivo [7]: 5.92 ± 0.21 h | total protein half-life in vivo [8]: 11.2 ± 0.37 h | total protein half-life in vivo [9]: 5.64 ± 0.26 h | total protein half-life in vivo [10]: 11.5 ± 0.22 h | total protein half-life in vivo [11]: 6.222 ± 0.037 h | total protein half-life in vivo [12]: 11.8 ± 1.3 h

MNDEMKGKSGKVKVMYVRSDDDSDKRTHNPRTGKGGGRPGKSRADGGRRPARDDKQSQPRDRKWEDSPWRTVSRAPGDETPEKADHGGISGKSFIDPEVLRRQRAEETRVYGENACQALFQSRPEAIVRAWFIQSVTPRFKEALRWMAANRKAYHVVDEAELTKASGTEHHGGVCFLIKKRNGTTVQQWVSQAGAQDCVLALENESNPHNLGGMMRSCAHFGVKGVVVQDAALLESGAAIRTAEGGAEHVQPITGDNIVNVLDDFRQAGYTVVTTSSEQGKPLFKTSLPAKMVLVLGQEYEGLPDAARDPNDLRVKIDGTGNVAGLNISVATGVLLGEWWRQNKA [P0AGJ5]
total protein half-life in vivo [2]: 5.71 ± 0.11 h | total protein half-life in vivo [3]: 4.87 ± 0.12 h | total protein half-life in vivo [4]: 5.2 ± 0.25 h | total protein half-life in vivo [5]: 4.77 ± 0.058 h | total protein half-life in vivo [6]: 2.91 ± 0.33 h | total protein half-life in vivo [7]: 5.57 ± 0.52 h | total protein half-life in vivo [8]: 10.3 ± 0.99 h | total protein half-life in vivo [9]: 5.53 ± 0.15 h | total protein half-life in vivo [10]: 10.7 ± 1.5 h | total protein half-life in vivo [11]: 5.4 ± 0.26 h | total protein half-life in vivo [12]: 10.9 ± 0.76 h

MNDIAHNLAQVRDKISAAATRCGRSPEEITLLAVSKTKPASAIAEAIDAGQRQFGENYVQEGVDKIRHFQELGVTGLEWHFIGPLQSNKSRLVAEHFDWCHTIDRLRIATRLNDQRPAELPPLNVLIQINISDENSKSGIQLAELDELAAAVAELPRLRLRGLMAIPAPESEYVRQFEVARQMAVAFAGLKTRYPHIDTLSLGMSDDMEAAIAAGSTMVRIGTAIFGARDYSKK
total protein half-life in vivo [1]: 4.54 ± 0.38 h | total protein half-life in vivo [2]: 5.38 ± 2.8 h | total protein half-life in vivo [3]: 4.27 ± 0.37 h | total protein half-life in vivo [4]: 5.68 ± 1.1 h | total protein half-life in vivo [5]: 4.24 ± 0.45 h | total protein half-life in vivo [6]: 3.39 ± 0.11 h | total protein half-life in vivo [7]: 5.71 ± 0.17 h | total protein half-life in vivo [8]: 8.8 ± 1 h | total protein half-life in vivo [9]: 4.33 ± 0.43 h | total protein half-life in vivo [10]: 7.53 ± 0.85 h | total protein half-life in vivo [11]: 5.95 ± 0.28 h | total protein half-life in vivo [12]: 11.1 ± 0.35 h

MNDRDFMRYSRQILLDDIALDGQQKLLDSQVLIIGLGGLGTPAALYLAGAGVGTLVLADDDDVHLSNLQRQILFTTEDIDRPKSQVSQQRLTQLNPDIQLTALQQRLTGEALKDAVARADVVLDCTDNMATRQEINAACVALNTPLITASAVGFGGQLMVLTPPWEQGCYRCLWPDNQEPERNCRTAGVVGPVVGVMGTLQALEAIKLLSGIETPAGELRLFDGKSSQWRSLALRRASGCPVCGGSNADPV
total protein half-life in vivo [1]: 4.92 ± 0.58 h | total protein half-life in vivo [2]: 3.65 ± 0.013 h | total protein half-life in vivo [3]: 3.8 ± 0.15 h | total protein half-life in vivo [4]: 5.12 ± 0.89 h | total protein half-life in vivo [5]: 2.97 ± 0.83 h | total protein half-life in vivo [6]: 2.37 ± 0.41 h | total protein half-life in vivo [7]: 4.03 ± 0.18 h | total protein half-life in vivo [8]: 8.83 ± 2.4 h | total protein half-life in vivo [9]: 3.24 ± 0.079 h | total protein half-life in vivo [10]: 8.28 ± 6.9 h | total protein half-life in vivo [11]: 4.26 ± 0.46 h | total protein half-life in vivo [12]: 7.08 ± 0.84 h

MNDSEFHRLADQLWLTIEERLDDWDGDSDIDCEINGGVLTITFENGSKIIINRQEPLHQVWLATKQGGYHFDLKGDEWICDRSGETFWDLLEQAATQQAGETVSFR
total protein half-life in vivo [1]: 5.94 ± 0.86 h | total protein half-life in vivo [2]: 6.07 h | total protein half-life in vivo [3]: 5.73 ± 0.14 h | total protein half-life in vivo [4]: 5.77 ± 0.51 h | total protein half-life in vivo [5]: 4.57 ± 1.3 h | total protein half-life in vivo [6]: 2.95 ± 0.78 h | total protein half-life in vivo [7]: 5.61 ± 1.6 h | total protein half-life in vivo [8]: 9.5 h | total protein half-life in vivo [9]: 5.34 ± 0.45 h | total protein half-life in vivo [10]: 9.68 ± 0.16 h | total protein half-life in vivo [11]: 5.67 ± 0.12 h | total protein half-life in vivo [12]: 11 ± 0.23 h

MNDTYQPINCDDYDNLELACQHHLMLTLELKDGEKLQAKASDLVSRKNVEYLVVEAAGETRELRLDKITSFSHPEIGTVVVSES [P0AFW8]
total protein half-life in vivo [2]: 4.86 ± 0.14 h | total protein half-life in vivo [3]: 1.83 h | total protein half-life in vivo [4]: 2.15 ± 0.34 h | total protein half-life in vivo [5]: 1.79 ± 0.12 h | total protein half-life in vivo [7]: 1.91 h | total protein half-life in vivo [8]: 3.49 ± 0.41 h | total protein half-life in vivo [9]: 2.05 ± 0.44 h | total protein half-life in vivo [10]: 3.37 h | total protein half-life in vivo [11]: 3.17 ± 1.2 h | total protein half-life in vivo [12]: 5.3 ± 1.6 h

MNEAVSPGALSTLFTDARTHNGWRETPVSDETLREIYALMKWGPTSANCSPARIVFTRTAEGKERLRPALSSGNLQKTLTAPVTAIVAWDSEFYERLPLLFPHGDARSWFTSSPQLAEETAFRNSSMQAAYLIVACRALGLDTGPMSGFDRQHVDDAFFTGSTLKSNLLINIGYGDSSKLYARLPRLSFEEACGLL
total protein half-life in vivo [2]: 1.43 h | total protein half-life in vivo [3]: 0.257 ± 0.15 h | total protein half-life in vivo [4]: 0.612 ± 0.095 h | total protein half-life in vivo [5]: 0.402 h | total protein half-life in vivo [9]: 0.94 ± 0.6 h

MNEQNLKHVIALLLEDAKRLQQIEPNAGTEARILLAKQALKTCGAQAPGRTEFMNFMANTLTPLPCNGEKVSRVYHDTMVKALRIELDGLRRKIVMNEIVTN
total protein half-life in vivo [1]: 4.2 h | total protein half-life in vivo [2]: 4.79 h | total protein half-life in vivo [9]: 4.61 h

— the supplement of paper PMC11246515
